The source of these data is publication PMC4263579.

The target in the assay is recombinant NS1 protein (dengue virus non-structural 1 protein). In words: native gel or EMSA; Native-PAGE of the recombinant NS1 protein; data not shown.

A word on the stoichiometry N: it is the number of molecules, sites or subunits per partner or assembly. As for “recombinant NS1 protein (dengue virus non-structural 1 protein)”, the stoichiometry N was found to be 6.
